Measured values as given in patent US10617749B1, “Composition of matter and methods for alteration of dendritic cell metabolism to augment cancer vaccine efficacy” (Duke University, priority 2016, dated 2020).
“Also recorded” adds a separate entry of the source.

Legend:
[1] = tested on: DC-induced CD4+ FoxP3+ Tregs; assay: In vitro Treg assay; assay type: cell-based, mouse; settings: for DC-mediated Treg differentiation in vitro: pre-treated DCs co-cultured with naïve CD4+ T cells
Description: In vivo Treg assay. DCs (C57, H-2^b) were pre-treated for 48 hours and delivered by intradermal injection into the footpad of Foxp3-mRFP mice. Draining inguinal and popliteal lymph nodes were resected 5 days later and analyzed for CD4^+ Foxp3^+ Tregs. In vitro Treg assay, DCs (Balb/c, H-2^d) were pre-treated for either 24 or 48 hrs, and re-plated at a 1:3 DC:T-cell ratio with purified naïve Foxp3-mRFP(H-2^b) CD4^+ Tcells. These co-cultures were incubated for 6 days and quantitated for CD4^+ FoxP3^+ Tregs by flow cytometry.
(§1) Murine bone marrow-derived DCs (BMDCs) were harvested and differentiated as previously described and purified using CD11c microbeads (Miltenyi Biotec) according to manufacturer's protocol. DC purity was monitored by flow cytometry and consistently found to be >95% CD11c+F4/80-. BRAFV600EPTEN−/−-Wnt5aKD and BRAFV600EPTEN−/−-NTC cell lines were generated and cultured as previously described. DC2.4, a murine dendritic cell line was kindly provided by Dr. Kenneth L. Rock (University of Massachusetts Medical School), and cultured as previously described. DC2.4β-cateninKD, DC2.4-CPT1AKD, and DC2.4-NTC stable cell lines were generated using a β-catenin-targeted, CPT1A-targeted, or control shRNA-expressing lentivirus followed by puromycin selection. DCs were treated with Wnt3a (100 ng/mL), Wnt5a (200 ng/mL), LPS (1 μg/mL), 1-MT, 2DG (1 mM), or ETO (100 µM) vs vehicle control either for 24 or 48 hrs prior to their use in both in vitro and in vivo experiments.

[2] = tested on: bone marrow-derived DCs (BMDCs); assay: DC oxygen consumption rate (OCR) / OXPHOS, extracellular flux analysis; assay type: cell-based, murine; settings: BMDCs treated with the agent alone vs untreated
Description: (§2) DC energy metabolism was measured using the XF^e24 extracellular flux analyzer (Seahorse Bioscience), with the glycolysis stress test kit and the mitochondrial stress test kit as previously described (Everts et al., 2014; Zhao and Klimecki, 2015).
as §1

[3] = tested on: bone marrow-derived DCs (BMDCs); assay: DC glycolysis, extracellular acidification rate (ECAR); assay type: cell-based, murine; settings: with or without LPS
Description: as §2, §1

[4] = tested on: DC intracellular PpIX; assay: PpIX flow cytometry analysis; assay type: cell-based, mouse; settings: 48 hours treatment, then 1 mM δ-ALA 4 hrs
Description: Dendritic cells were terminally incubated in the presence of 1 mM δ-aminolevulinic acid (ALA) for 4 hrs. Intracellular PpIX was analyzed by flow cytometry as previously described (Hryhorenko et al., 1998).

[5] = tested on: murine DCs; assay: qrt-PCR / ELISA gene and cytokine expression in murine DCs; assay type: cell-based; settings: for PPAR-γ and CPT1A expression: murine primary DCs; for expression of key glycolytic enzymes (phosphofructokinase, hexokinase, pyruvate kinase): primary DCs
Description: Total RNA was isolated by RNeasy Plus Mini Kit(Qiagen). RNA(500 ng) was used in cDNA Synthesis (iScript, BioRad). Quantification of mRNA for genes involved in PPARγ signaling was performed using Mouse PrimePCR PPAR Array according to the manufacturer's protocol (BioRad). Real-time PCR was performed using an ABI7500 Real-Time PCR system (Life Technologies). Data analysis utilized the PrimePCR Analysis Software (BioRad). Conventional qPCR was performed using validated primers (Table 1) and SsoAdvanced Universal SYBR Green Super mix (BioRad) or Taqman probes (Applied Biosystems) for heme synthesis enzymes.
Murine IL-6 (eBioscience) and IL-12p40 (Becton Dickinson) ELISAs were performed according to manufacture's protocol.

[6] = tested on: human monocyte-derived DCs; assay: OCR analysis of human monocyte-derived DCs; assay type: cell-based; settings: human monocyte-derived DCs, Wnt5a 48 hours
Description: Human DCs were differentiated from harvested peripheral blood mononuclear cells and pre-treated with Wnt5a 48 hours prior to OCR analysis. Short-term incubation with ETO was performed prior to analysis.
as §2
(§3) Human Monocyte-derived Dendritic Cells were generated as previously described.

[7] = tested on: bone marrow-derived DCs (BMDCs); assay: Extracellular lactate assay; assay type: cell-based, murine; settings: BMDC culture media 0-48 hours
Description: L-Lactate levels were measured by lactate dehydrogenase conversion of L-lactate+NAD^+ to pyruvate+NADH following treatment with […] (Pesce et al., 1975). Lactate standards and samples were read at NADH specific absorbance 340 nm.

[8] = tested on: OT-1 CD8+ T cells; assay: T cell proliferation assay; assay type: cell-based, mouse; settings: SIINFEKL-loaded BMDCs co-incubated with OT-1 splenocytes
Description: Splenocytes of OT-1 mice (H-2^b) were isolated and stained with CellTrace Violet (ThermoFisher). Preconditioned DCs were loaded with ovalbumin peptide SIINFEKL, and co-cultured at a DC:splenocyte ratio of 40,000:120,000 cells for 72 hrs. CD8+ T cell proliferation was measured by the dilution of Cell Trace Violet dye by flow cytometry.

[9] = tested on: DC IDO; assay: IDO enzymatic assay (kynurenine HPLC); assay type: cell-based, mouse; settings: purified DC cultures, Wnt5a or Wnt5a+ETO
Description: DC IDO enzyme activity was measured by the conversion of L-tryptophan to L-kynurenine in conditioned media by HPLC (Pallotta et al., 2011). Intracellular hemin levels were measured using a colorimetric assay kit (BioVision).

[10] = tested on: human monocyte-derived DC; assay: PPARγ and CPT1A Western blot in human monocyte-derived DCs; assay type: cell-based
From the text: (§4) Primary antibodies including CPT1A (Cell signaling), PPAR-γ (Santa Cruz Biotechnology), β-catenin, β-actin (Millipore), p-AMPK(T172)/AMPK (Cell signaling), p-AKT(T308)/Akt (Cell Signaling) were used at 1:1000. Secondary antibodies including goat anti-rabbit IgG-HRP (Millipore) and goat anti-mouse IgG-HRP (Millipore) were used at 1:5000. Cells were lysed in Laemmli sample buffer after treatment and subjected to SDS-polyacrylamide gel electrophoresis and immunoblot analysis. For immunoprecipitation, cells were lysed in radio immunoprecipitation assay (RIPA) buffer [10 mM sodium phosphate (pH 8.0), 150 mM NaCl, 1% Triton X-100, 1% sodium deoxycholate, and 0.1% SDS in the presence of 1 mM DTT, 1 mM phenylmethylsulfonylfluoride, and a protease inhibitor cocktail (Sigma)], precleared with protein A beads, and then incubated with 1 μg of antibody against β-catenin or isotype control IgG with protein A-agarose beads on a rotator overnight at 4° C. After 3 washes with RIPA buffer, immunoprecipitated complexes were eluted in sample buffer by boiling and subjected to immunoblot analysis. Immunoblots were visualized by chemiluminescence substrate (ThermoFisher) and imaged by a ChemiDoc XRSplus system (BioRad).
as §3

[11] = tested on: BMDCs; assay: Immunoblot of p-AMPK(T172) and p-AKT(T308) in BMDCs; assay type: cell-based, murine; settings: Wnt5a 200 ng/mL
From the text: All data representative of 3 independent experiments.
as §4

[12] = tested on: β-catenin-PPAR-γ complex; assay: β-catenin co-immunoprecipitation in primary DCs; assay type: cell-based, murine
From the text: as §4

[13] = tested on: Dendritic Cells; assay: BODIPY and fatty acid uptake assay; assay type: cell-based, murine; settings: TF2-C12 uptake, BODIPY
Description: Dendritic Cells were stained in 0.5 μg/ml BODIPY 493/503 in PBS for 15 min to determine neutral lipid content (Herber et al., 2010). Fatty acid uptake measurement in DCs were performed using a dodecanoic acid fluorescent TF2-C12 fatty acid (Sigma) according to the manufacturer's protocol.

[14] = tested on: DCs; assay: DC ATP generation; assay type: cell-based; settings: data not shown

O=CC[C@@H](O)[C@H](O)[C@H](O)CO [2-DG, 2-deoxyglucose]
DC-mediated Treg differentiation in vitro [1]: enhancement of DC-dependent Treg expansion; also recorded: enhanced Treg differentiation

NC(=O)c1ncn([C@@H]2O[C@H](CO)[C@@H](O)[C@H]2O)c1N [AICAR]
DC OXPHOS (OCR) [2]: suppresses OXPHOS

Oc1nc(-c2ccc(C(F)(F)F)cc2)nc2c1CSCC2 [XAV939]
DC glycolysis (ECAR) [3]: promote DC glycolysis

CC[C@H]1/C=C/C=C/C[C@@H](C)[C@H](O)[C@@](C)(O)C(=O)[C@@H](C)[C@H](O)[C@@H](C)C(=O)[C@@H](C)[C@H](O)[C@@H](C)/C=C/C(=O)O[C@@H]2[C@H](C)[C@H](CC1)O[C@]1(CC[C@H](C)[C@H](C[C@@H](C)O)O1)[C@H]2C [oligomycin]
DC-mediated Treg differentiation in vitro [1]: potently suppressed Wnt5a induction of DC-mediated Treg differentiation; also recorded: almost complete elimination of these Treg populations

Cn1cc(CC(N)C(=O)O)c2ccccc21 (stereo not drawn) [1-MT]
DC-dependent Treg differentiation promoted by melanoma-derived conditioned media ([1]; DCs with BRAFV600E-PTEN−/− conditioned media): only modestly suppressed

B1: Wnt3a: canonical Wnt ligand used to treat DCs (100 ng/mL) (protein, UniProt P56704 19-352, looked up)
Protein Wnt-3a: SYPIWWSLAVGPQYSSLGSQPILCASIPGLVPKQLRFCRNYVEIMPSVAEGIKIGIQECQHQFRGRRWNCTTVHDSLAIFGPVLDKATRESAFVHAIASAGVAFAVTRSCAEGTAAICGCSSRHQGSPGKGWKWGGCSEDIEFGGMVSREFADARENRPDARSAMNRHNNEAGRQAIASHMHLKCKCHGLSGSCEVKTCWWSQPDFRAIGDFLKDKYDSASEMVVEKHRESRGWVETLRPRYTYFKVPTERDLVYYEASPNFCEPNPETGSFGTRDRTCNVSSHGIDGCDLLCCGRGHNARAERRREKCRCVFHWCCYVSCQECTRVYDVHTCK
DC OXPHOS (OCR) [2]: no changes in either DC OXPHOS or glycosis | DC glycolysis (ECAR) [3]: no changes in either DC OXPHOS or glycosis | DC levels of PpIX [4]: failed to enhance PpIX synthesis in DCs | PPAR-γ and CPT1A expression [5]: failed to induce the expression of both PPAR-γ and CPT1A in DCs | expression of key glycolytic enzymes (phosphofructokinase, hexokinase, pyruvate kinase) ([5]; qrt-PCR): promotes the expression of key glycolytic enzymes

B2: Wnt5a: Wnt ligand used to treat DCs (200 ng/mL) (protein, UniProt P41221 62-380, looked up)
Protein Wnt-5a: IIGAQPLCSQLAGLSQGQKKLCHLYQDHMQYIGEGAKTGIKECQYQFRHRRWNCSTVDNTSVFGRVMQIGSRETAFTYAVSAAGVVNAMSRACREGELSTCGCSRAARPKDLPRDWLWGGCGDNIDYGYRFAKEFVDARERERIHAKGSYESARILMNLHNNEAGRRTVYNLADVACKCHGVSGSCSLKTCWLQLADFRKVGDALKEKYDSAAAMRLNSRGKLVQVNSRFNSPTTQDLVYIDPSPDYCVRNESTGSLGTQGRLCNKTSEGMDGCELMCCGRGYDQFKTVQTERCHCKFHWCCYVKCKKCTEIVDQFVCK
DC OXPHOS (OCR) [2]: strongly promoting DC OXPHOS; also recorded: promotes DC oxidative phosphorylation (OXPHOS) | OCR [6]: induces OCR in human monocyte-derived DCs | DC glycolysis (ECAR) [3]: inhibits DC glycolysis; also recorded: inhibit LPS-mediated DC glycolysis; also recorded: eliminates the glycolytic reserve of DCs while also significantly suppressing the lipopolysaccharide (LPS)-induced glycolytic surge; also recorded: suppresses LPS-induced DC glycolysis | lactate production [7]: suppress lactate production | DC-mediated antigen-specific CD8+ T cell proliferation [8]: suppresses LPS-induced DC-mediated antigen-specific T cell proliferation | DC IDO enzymatic activity (kynurenine) [9]: capable of promoting DC IDO enzymatic activity | DC levels of PpIX [4]: enhances DC levels of the PpIX prosthetic group in a manner that depends on the induction of FAO | IL-6 and IL-12 expression in primary DCs ([5]; BMDCs, qrt-PCR): suppresses IL-6 and IL-12 expression in primary DCs | expression of ALAS1 and further PpIX/heme synthesis enzymes ([5]; DCs, qrt-PCR): upregulate the expression of ALAS1 as well as several additional enzymes involved in PpIX synthesis | PPAR-γ and CPT1A expression [5]: directly induce CPT1a expression in a PPARγ-dependent manner; also recorded: induces the upregulation of PPAR-γ and CPT1A | expression of key glycolytic enzymes (phosphofructokinase, hexokinase, pyruvate kinase) ([5]; qrt-PCR): suppresses the expression of key glycolytic enzymes; also recorded: suppress the expression of the key glycolytic enzymes | PPAR-γ and CPT1A expression [10]: induces the upregulation of PPAR-γ and CPT1A | AMPK activation (Thr-172 phospho-AMPK) ([11]; 24 and 48 hrs): suppress AMPK activation | DC Akt Thr-308 phosphorylation ([11]; 48 hrs): no significant impact | PPAR-γ binding to β-catenin [12]: PPAR-γ to bind to β-catenin upon Wnt5a stimulation | DC fatty acid uptake and lipid stores [13]: enhance DC fatty acid uptake and lipid stores | DC ATP generation [14]: no net effect on DC ATP generation
